Test results as given in publication PMC8552062, “Contributions of UDP-Glucuronosyltransferases to Human Hepatic and Intestinal Metabolism of Ticagrelor and Inhibition of UGTs and Cytochrome P450 Enzymes by Ticagrelor and its Glucuronidated Metabolite” (Frontiers in Pharmacology, 2021).

Substrate: CCCSc1nc(N[C@@H]2C[C@H]2c2ccc(F)c(F)c2)c2nnn([C@@H]3C[C@H](OCCO)[C@@H](O)[C@H]3O)c2n1
Experiment: Ticagrelor glucuronidation by recombinant human UGT1A4
Assay type: in vitro ADME
Conditions: other: recombinant UGT1A4, Michaelis-Menten kinetics; pH 7.4; 37.0 °C
Procedure: Ticagrelor glucuronidation was investigated in an in vitro incubation system by using HLM, HIM, and recombinant human UGTs. The incubation system consisted of enzyme sources (HLM, HIM, or human recombinant UGTs), various concentrations of ticagrelor (dissolved in 50% methanol, 1% v/v, 1, 2, 5, 10, 20, 50, 100, 200, 500 μM of final concentration), alamethicin (50 μg/mg protein), 5 mM MgCl2, 100 mM tris-HCL buffer (pH 7.4), and 5 mM UDPGA in a total volume of 100 μl. Alamethicin is a pore-forming polypeptide used to activate UGTs in HLM and HIM ([Fisher et al., 2000]). Preliminary studies were conducted to determine the optimal protein concentrations and incubation times. Linear conditions of ticagrelor-O-Glu formation from ticagrelor, i.e., HLM, 0.2 mg of protein/ml and 60 min, HIM, 0.2 mg of protein/ml and 60 min, and recombinant human UGTs, 0.2 mg of protein/ml and 60 min were selected. The incubation mixture without UDPGA was placed on ice for 15 min to activate UGT by alamethicin. After pre-incubation for 5 min at 37°C, the reactions were started by the addition of UDPGA. After another 60 min of incubation at 37°C, the reaction was terminated by adding 100 μl of acetonitrile containing internal standard (diazepam). The mixture vortexed for 2 min and then centrifuged at 14,000 rpm for 10 min at 4°C. The resulting supernatant was injected into a liquid chromatography tandem mass spectrometry (LC-MS/MS, Applied Biosystems/MDS Sciex, Foster City, CA) system for the detection of ticagrelor-O-Glu.
Kinetic analyses were performed using the mean values of triplicate determinations with either pooled HLM, HIM, or recombinant human UGTs. All data were analyzed by nonlinear regression analysis using the GraphPad Prism 6 (GraphPad Software Inc., CA, United States). Michaelis-Menten kinetics (Eq. 1) or substrate inhibition kinetics (Eq. 2) ([Houston and Kenworthy, 2000]) were tested to determine the optimal model for describing the data. […] Intrinsic clearance (CLint) was calculated by dividing Vmax by Km.

B1: recombinant human UGT1A4 (Homo sapiens) (protein)
chain: GKVLVVPTDGSPWLSMREALRELHARGHQAVVLTPEVNMHIKEEKFFTLTAYAVPWTQKEFDRVTLGYTQGFFETEHLLKRYSRSMAIMNNVSLALHRCCVELLHNEALIRHLNATSFDVVLTDPVNLCGAVLAKYLSIPAVFFWRYIPCDLDFKGTQCPNPSSYIPKLLTTNSDHMTFLQRVKNMLYPLALSYICHTFSAPYASLASELFQREVSVVDLVSYASVWLFRGDFVMDYPRPIMPNMVFIGGINCANGKPLSQEFEAYINASGEHGIVVFSLGSMVSEIPEKKAMAIADALGKIPQTVLWRYTGTRPSNLANNTILVKWLPQNDLLGHPMTRAFITHAGSHGVYESICNGVPMVMMPLFGDQMDNAKRMETKGAGVTLNVLEMTSEDLENALKAVINDKSYKENIMRLSSLHKDRPVEPLDLAVFWVEFVMRHKGAPHLRPAAHDLTWYQYHSLDVIGFLLAVVLTVAFITFKCCAYGYRKCLGKKGRVKKAHKSKTH
notes: purchased BD Gentest; host or cells: baculovirus-infected insect cells
- Km: 10.28 µM
- Vmax: 3.6e-07 µmol/min/mg
- Vmax/Km: 0.04 µL/min/mg
